Here are results for three molecules from patent US20260166140A1, “Combinations Involving Epidermal Growth Factor Receptor Tyrosine Kinase Inhibitors For the Treatment of Cancer” (AstraZeneca AB, priority 2022, published 2026).

Experiment [1] deals with T1, Human EGFR (recombinant, soluble monomeric) (human, UniProt P00533 25-645).
T1 construct: also called EGFR antigen
Nature of the experiment: SPR, Biacore T200, antibody captured on anti-human IgG, soluble monomeric antigen as analyte, 25 C. (In general: SPR reads the build-up and loss of mass on a sensor chip optically.)

Experiment [2] addresses T2, Cynomolgus monkey EGFR (recombinant, soluble monomeric) (cynomolgus monkey, UniProt P55245 25-645 (rhesus entry)).
T2 construct: also called cyno EGFR
The experiment is described as above.

Experiment [3] concerns the target T3, Mouse EGFR (recombinant, soluble monomeric) (mouse, UniProt Q01279 25-647).
T3 construct: also called murine EGFR
Described as above.

The target of experiment [4] is T4, Human cMET (recombinant, soluble monomeric) (human, UniProt P08581 25-932).
T4 construct: in the HTRF assay it is called the human cMET receptor; also called His-tagged cMET antigen
T4 sequence (P08581 25-932): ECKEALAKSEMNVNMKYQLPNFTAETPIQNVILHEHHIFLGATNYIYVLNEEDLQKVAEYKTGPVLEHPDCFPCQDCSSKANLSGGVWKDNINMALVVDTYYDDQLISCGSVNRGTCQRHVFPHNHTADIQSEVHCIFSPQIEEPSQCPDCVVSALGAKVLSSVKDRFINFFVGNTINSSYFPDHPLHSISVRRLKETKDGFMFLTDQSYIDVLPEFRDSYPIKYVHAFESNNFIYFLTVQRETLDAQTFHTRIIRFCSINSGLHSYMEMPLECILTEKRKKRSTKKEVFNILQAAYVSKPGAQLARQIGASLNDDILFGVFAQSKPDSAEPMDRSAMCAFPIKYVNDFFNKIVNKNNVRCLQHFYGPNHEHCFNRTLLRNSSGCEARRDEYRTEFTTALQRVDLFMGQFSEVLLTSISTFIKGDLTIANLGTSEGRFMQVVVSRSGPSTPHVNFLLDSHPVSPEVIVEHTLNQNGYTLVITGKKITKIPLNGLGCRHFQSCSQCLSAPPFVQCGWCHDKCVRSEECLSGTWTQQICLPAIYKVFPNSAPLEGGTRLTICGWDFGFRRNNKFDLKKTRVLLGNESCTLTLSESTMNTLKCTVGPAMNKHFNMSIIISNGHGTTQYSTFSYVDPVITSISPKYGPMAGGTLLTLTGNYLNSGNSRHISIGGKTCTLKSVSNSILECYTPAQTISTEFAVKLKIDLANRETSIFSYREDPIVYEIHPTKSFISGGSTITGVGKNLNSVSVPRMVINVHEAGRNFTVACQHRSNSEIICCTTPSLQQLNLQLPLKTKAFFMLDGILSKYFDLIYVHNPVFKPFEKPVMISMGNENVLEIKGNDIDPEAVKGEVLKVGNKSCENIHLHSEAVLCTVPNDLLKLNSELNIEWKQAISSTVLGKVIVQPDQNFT
Nature of the experiment: ELISA: antigen coated at 1 ug/mL, antibody dilution series, goat anti-human Fab-HRP, A450; panel Human cMET. (In general: In an ELISA, binding on a coated surface is turned into a signal by an enzyme label.)

The target in a further experiment is Mouse cMET (recombinant) (mouse, UniProt P16056 25-929, limits assumed). Nature of the experiment: ELISA: antigen coated at 1 ug/mL, antibody dilution series, goat anti-human Fab-HRP, A450; panel Mouse cMET.
Mouse cMET (recombinant), sequence (P16056 25-929 limits assumed): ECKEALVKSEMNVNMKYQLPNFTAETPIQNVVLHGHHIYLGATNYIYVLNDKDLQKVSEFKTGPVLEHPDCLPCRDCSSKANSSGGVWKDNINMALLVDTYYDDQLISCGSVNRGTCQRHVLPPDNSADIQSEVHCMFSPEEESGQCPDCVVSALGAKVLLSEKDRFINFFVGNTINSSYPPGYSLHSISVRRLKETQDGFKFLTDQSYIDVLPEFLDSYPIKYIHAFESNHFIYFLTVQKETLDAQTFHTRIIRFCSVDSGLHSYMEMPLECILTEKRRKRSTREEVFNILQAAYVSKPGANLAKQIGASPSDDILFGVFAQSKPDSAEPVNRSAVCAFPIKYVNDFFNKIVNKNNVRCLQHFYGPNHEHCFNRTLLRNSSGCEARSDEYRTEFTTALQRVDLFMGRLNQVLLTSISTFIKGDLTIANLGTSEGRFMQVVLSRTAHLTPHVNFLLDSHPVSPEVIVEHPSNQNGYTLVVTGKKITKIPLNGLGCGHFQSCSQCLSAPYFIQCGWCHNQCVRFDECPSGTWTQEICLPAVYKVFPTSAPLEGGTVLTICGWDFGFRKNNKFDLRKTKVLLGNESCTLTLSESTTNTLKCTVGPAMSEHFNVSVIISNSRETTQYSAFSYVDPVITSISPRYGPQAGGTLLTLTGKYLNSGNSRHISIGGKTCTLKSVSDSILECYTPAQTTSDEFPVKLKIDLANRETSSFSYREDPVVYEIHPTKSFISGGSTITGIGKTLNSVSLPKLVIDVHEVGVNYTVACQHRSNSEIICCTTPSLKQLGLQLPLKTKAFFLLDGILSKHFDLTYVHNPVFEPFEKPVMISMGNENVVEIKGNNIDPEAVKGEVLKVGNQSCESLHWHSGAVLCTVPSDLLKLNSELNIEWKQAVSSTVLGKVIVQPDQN
The target of the next experiment is T5, HER2 (UniProt P04626 23-652, limits assumed).
T5 construct: also called EGFR HER family protein HER2
Put plainly: ELISA: antigen coated at 1 ug/mL, antibody dilution series, goat anti-human Fab-HRP, A450; panel Human HER2.

A further experiment has as its target T6, HER3 (UniProt P21860 20-643, limits assumed).
T6 construct: also called EGFR HER family protein HER3
Nature of the experiment: ELISA: antigen coated at 1 ug/mL, antibody dilution series, goat anti-human Fab-HRP, A450; panel Human HER3.

In another experiment the target is T7, HER4 (UniProt Q15303 26-649, limits assumed).
T7 construct: also called EGFR HER family protein HER4
T7 sequence (looked up): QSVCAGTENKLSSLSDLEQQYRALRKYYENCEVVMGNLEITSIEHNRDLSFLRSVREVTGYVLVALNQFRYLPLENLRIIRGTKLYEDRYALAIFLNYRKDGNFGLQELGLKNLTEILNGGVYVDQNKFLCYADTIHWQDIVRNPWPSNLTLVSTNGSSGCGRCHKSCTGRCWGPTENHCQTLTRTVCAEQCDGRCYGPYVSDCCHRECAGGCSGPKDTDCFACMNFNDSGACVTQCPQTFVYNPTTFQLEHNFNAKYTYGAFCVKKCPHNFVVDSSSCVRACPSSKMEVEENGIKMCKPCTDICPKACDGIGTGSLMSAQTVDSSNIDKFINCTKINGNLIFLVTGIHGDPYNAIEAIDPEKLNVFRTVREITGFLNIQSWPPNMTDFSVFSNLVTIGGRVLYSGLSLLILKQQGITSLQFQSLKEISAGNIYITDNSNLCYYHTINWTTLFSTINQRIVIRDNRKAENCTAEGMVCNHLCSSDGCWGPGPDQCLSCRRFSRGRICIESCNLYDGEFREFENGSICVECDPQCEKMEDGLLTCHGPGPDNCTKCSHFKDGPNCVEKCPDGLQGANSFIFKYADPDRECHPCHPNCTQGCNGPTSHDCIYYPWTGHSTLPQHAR
Put plainly: ELISA: antigen coated at 1 ug/mL, antibody dilution series, goat anti-human Fab-HRP, A450; panel Human HER4.

The next experiment deals with T8, Semaphorin 3a (UniProt Q14563 21-771, limits assumed).
T8 construct: also called Sema 3a
T8 sequence (looked up): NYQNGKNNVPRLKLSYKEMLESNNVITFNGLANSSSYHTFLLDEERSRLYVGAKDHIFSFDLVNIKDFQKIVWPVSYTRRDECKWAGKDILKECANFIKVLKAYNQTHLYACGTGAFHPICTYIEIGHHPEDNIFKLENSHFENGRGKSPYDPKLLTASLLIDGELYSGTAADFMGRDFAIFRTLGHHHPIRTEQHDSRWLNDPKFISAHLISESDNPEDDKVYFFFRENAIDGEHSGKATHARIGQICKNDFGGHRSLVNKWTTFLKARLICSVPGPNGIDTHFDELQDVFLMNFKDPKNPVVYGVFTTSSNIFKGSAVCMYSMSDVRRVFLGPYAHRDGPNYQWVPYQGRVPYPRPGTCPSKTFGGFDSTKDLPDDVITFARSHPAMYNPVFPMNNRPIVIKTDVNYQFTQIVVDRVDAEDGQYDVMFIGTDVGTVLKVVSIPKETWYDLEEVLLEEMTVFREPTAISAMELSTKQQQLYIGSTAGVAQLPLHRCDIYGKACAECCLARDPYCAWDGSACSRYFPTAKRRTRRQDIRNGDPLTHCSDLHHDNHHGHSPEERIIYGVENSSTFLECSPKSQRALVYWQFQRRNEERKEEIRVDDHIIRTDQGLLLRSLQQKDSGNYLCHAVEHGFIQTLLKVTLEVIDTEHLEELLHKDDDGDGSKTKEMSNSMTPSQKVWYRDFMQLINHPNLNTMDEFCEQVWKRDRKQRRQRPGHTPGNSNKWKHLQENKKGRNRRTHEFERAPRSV
Nature of the experiment: ELISA: antigen coated at 1 ug/mL, antibody dilution series, goat anti-human Fab-HRP, A450; panel Human Sema3a.

The target of experiment [5] is T9, Cynomolgus monkey cMET (recombinant, soluble monomeric) (cynomolgus monkey, UniProt A0M8R7 25-932 (Papio anubis entry)).
T9 construct: also called cyno cMET
T9 sequence (A0M8R7 25-932 S170N/I621T): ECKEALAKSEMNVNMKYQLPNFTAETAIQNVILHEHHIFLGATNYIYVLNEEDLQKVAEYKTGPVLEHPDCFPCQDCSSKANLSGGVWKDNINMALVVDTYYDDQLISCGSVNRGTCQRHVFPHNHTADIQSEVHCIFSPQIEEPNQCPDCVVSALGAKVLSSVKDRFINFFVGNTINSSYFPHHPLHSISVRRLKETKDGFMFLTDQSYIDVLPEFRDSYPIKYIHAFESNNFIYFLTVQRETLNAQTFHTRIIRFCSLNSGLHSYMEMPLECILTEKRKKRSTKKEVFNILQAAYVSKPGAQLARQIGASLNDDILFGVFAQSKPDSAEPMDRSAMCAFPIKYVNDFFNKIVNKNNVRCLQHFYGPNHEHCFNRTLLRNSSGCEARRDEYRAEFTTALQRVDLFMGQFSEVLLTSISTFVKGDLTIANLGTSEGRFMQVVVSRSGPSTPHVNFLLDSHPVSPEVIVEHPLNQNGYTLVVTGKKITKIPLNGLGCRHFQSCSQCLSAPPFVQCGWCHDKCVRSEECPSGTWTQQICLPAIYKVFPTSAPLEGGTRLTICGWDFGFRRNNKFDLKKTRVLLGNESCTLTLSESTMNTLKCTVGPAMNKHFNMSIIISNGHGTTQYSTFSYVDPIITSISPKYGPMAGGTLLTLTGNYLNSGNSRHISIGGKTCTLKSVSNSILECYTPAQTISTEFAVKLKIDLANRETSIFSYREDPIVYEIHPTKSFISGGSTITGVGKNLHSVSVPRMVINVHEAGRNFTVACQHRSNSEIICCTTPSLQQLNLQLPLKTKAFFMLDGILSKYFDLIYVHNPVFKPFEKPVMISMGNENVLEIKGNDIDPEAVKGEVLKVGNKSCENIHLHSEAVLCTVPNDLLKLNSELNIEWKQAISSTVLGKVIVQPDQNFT
Put plainly: ELISA: antigen coated at 1 ug/mL, antibody dilution series, goat anti-human Fab-HRP, A450; panel Cynomolgus cMET.

The target of another experiment is Ron (CD136) (UniProt Q04912 25-957, limits assumed). Put plainly: ELISA: antigen coated at 1 ug/mL, antibody dilution series, goat anti-human Fab-HRP, A450; panel Human Ron (CD136).
The target of experiment [6] is T4, Human cMET (recombinant, soluble …). Nature of the experiment: Octet biolayer interferometry, antigen capture format: His-tagged human cMET on NI-NTA sensors, then antibody (66 nM), then human EGFR (500 nM).
Experiment [7] addresses T9, Cynomolgus monkey cMET (recombinant, …). Nature of the experiment: SPR, Biacore T200, antibody captured on anti-human IgG, soluble monomeric antigen as analyte, 25 C.
In experiment [8] the target is T4, Human cMET (recombinant, soluble …). Described as above.
In experiment [9] the target is T3, Mouse EGFR (recombinant, soluble …). Put plainly: ELISA: antigen coated at 1 ug/mL, antibody dilution series, goat anti-human Fab-HRP, A450; panel Mouse EGFR.
Experiment [10] concerns the target T2, Cynomolgus monkey EGFR (recombinant, …). Nature of the experiment: ELISA: antigen coated at 1 ug/mL, antibody dilution series, goat anti-human Fab-HRP, A450; panel Cynomolgus EGFR.
In experiment [11] the target is T1, Human EGFR (recombinant, soluble …). Put plainly: Octet biolayer interferometry, antigen capture format: His-tagged human cMET on NI-NTA sensors, then antibody (66 nM), then human EGFR (500 nM).

As usually defined, the Kd is the concentration at which binding is half-saturated. For orientation: koff means the first-order rate constant of dissociation. The term kon denotes the rate constant with which the complex forms.

B1: RAA22 IgG (antibody, V domains shown)
VH: QVQLVQSGAEVKKPGSSVKVSCKASGGTFSDNDFSWVRQAPGQGLEWMGAIVAVFRTETYAQKFQDRVKITADISTRTTYMELSSLRSEDTAVYYCARRLMSAISGPGAPLLMWGQGTLVTVSS
VL: QSALTQPRSVSGSPGQSVTISCTGTSSDVGGYNYVSWYQQHPGKAPKLMIYDVSKRPSGVPDRFSGSKSGNTASLTISGLQAEDEADYYCSSYTSSDTLEIFGGGTKLTVL
Turning to B1, the Kd in experiment [1] was found to be 46.6 nM; in [2], 170 nM; in experiment [3], 488 nM. Moreover, the values for the dissociation rate constant (koff) in experiment [1], in experiment [2] and in [3] were 0.00206 s⁻¹, 0.00601 s⁻¹ and 0.019 s⁻¹, respectively. Besides, the kon in [1] came out at 44100 M⁻¹ s⁻¹; in experiment [2], 35400 M⁻¹ s⁻¹; in experiment [3] it was 40300 M⁻¹ s⁻¹. For the same molecule, the binding result (in [4]; with Mouse cMET (recombinant); with HER2; with HER3; with HER4; in the experiment with Semaphorin 3a) was “no binding (tested: 10 ug/ml)” throughout. Further, the binding result (in experiment [5]; in the experiment with Ron (CD136)) was “no binding (tested: 10 ug/ml)” each time.

B2: QD6 IgG (antibody, V domains shown)
VH: QVQLVQSGAEVKKPGSSVKVSCKASGGTFSDNDFSWVRQAPGQGLEWMGAIVAVVRTETYAQKFQDRVKITADISTRTTYMELSSLRSEDTAVYYCARRLMSAISGPGAPLLMWGQGTLVTVSS
VL: QSALTQPRSVSGSPGQSVTISCTGTSSDVGGYNYVSWYQQHPGKAPKLMIYDVSERPSGVPDRFSGSKSGNTASLTISGLQAEDEADYYCFSYTSSDTLEIFGGGTKLTVL
notes: also called anti-EGFR antibody clone QD6
Regarding B2, the Kd in [1] worked out at 2 nM; in experiment [2], 2.5 nM; in [3], 4.4 nM. In addition, the koff in [1] was determined as 0.000292 s⁻¹; in experiment [2], 0.000288 s⁻¹; in experiment [3] it was 0.000735 s⁻¹. In addition, the association rate constant (kon) is 148000 M⁻¹ s⁻¹ in experiment [1], 114000 M⁻¹ s⁻¹ in experiment [2] and 167000 M⁻¹ s⁻¹ in [3]. In addition, the binding result (in the experiment with Mouse cMET (recombinant); with HER2; in the experiment with HER3; with HER4; with Semaphorin 3a; in [5]) was “no binding (tested: 10 ug/ml)” in each case. Moreover, the binding result with Ron (CD136) is “no binding (tested: 10 ug/ml)”; in experiment [6], “no binding (tested: 66 nM)”.

B3: B09-57 IgG (antibody, V domains shown)
VH: QVQLVQSGAEVKKPGASVKVSCKASGYTFTDYYIHWVRQATGQGLEWMGWMNPNSGNTGYAQKFQGRVTMTRDTSISTAYMELSSLRSEDTAVYYCARGQGYTHSWGQGTMVTVSS
VL: DIQMTQSPSTLSASVGDRVTITCRASEGIYHWLAWYQQKPGKAPKLLIYKASSLASGVPSRFSGSGSGTEFTLTISSLQPDDFATYYCQQYSNYPPTFGGGTKLEIK
notes: also called B09-GL; cMET IgG B09
Consider B3, for which the values for the dissociation constant (Kd) in experiment [7] and in experiment [8] were 1.9 nM and 1.6 nM, respectively. For the same molecule, the koff in experiment [7] came out at 0.00194 s⁻¹; in [8], 0.000882 s⁻¹. Further, the kon in experiment [7] was 1.04e+06 M⁻¹ s⁻¹; in experiment [8], 563000 M⁻¹ s⁻¹. The binding result (in [9]; in the experiment with Mouse cMET (recombinant); with HER2; with HER3; with HER4; with Semaphorin 3a) was “no binding (tested: 10 ug/ml)” each time. Further, the binding result in experiment [10] is “no binding (tested: 10 ug/ml)”; with Ron (CD136) it was “no binding (tested: 10 ug/ml)”; in experiment [11], “no binding (tested: 500 nM EGFR)”.
